In the RNAGym collection of RNA variant scans (doi:10.7554/elife.80360):

B1: HDV Ribozyme (parent)
chain: GGCCGGCAUGGUCCCAGCCUCCUCGCUGGCGCCGGCUGGGCAACAUUCCGAGGGGACCGUCCCCUCGGUAAUGGCGAAUGGGACCCA

Variants of: B1
Assay: self-cleavage, relative activity (ratio to wild type); higher = more cleavage; co-transcriptional

Variant	self-cleavage
C14U G81A	1.32
C13U G28U	0.0615
C14U G76C	1.06
C14U C66U	1.25
C14A A77U	0.237
C14U U20C	0.133
C14U A77U	0.573
C14G A56U	0.969
C14G A56G	0.646
C13U U65A	0.508
C14U C18U	0.591
C13G C32G	0
C14G C36U	0.375
C14U C26G	0.76
C14U C26A	1.08
C14A U72C	0.378
C13U U20A	0.0831
C13A C32A	0.0326
C13A C32U	0.375
C14U G68C	0.733
C14G A83U	0.289
C14G G67A	0.453
C13G C48U	0.0739
C14U A42G	0.959

Variant	self-cleavage
C13U G25A	0.122
C14G C48U	0.831
C14G C48A	0.723
C14G G74A	0.199
C15A A42U	0.269
C14U A43G	0.643
C14U C58A	1.13
C14G C58A	0.639
C14A G17C	0.123
C13A G80U	0.0654
C14G C61G	0.782
C14U G50C	1.11
C14U G50U	1.09
C13U A77C	0.293
C14A A16U	0.923
C13A G17A	0.0639
C13A G17C	0
C14A G40C	0.185
C14A G40U	0.261
C13A G31U	0.0604
C14G G17U	0.323
C13G G55A	0.0875
C13U A51U	0.802
C13U G76A	0.743

Variant	self-cleavage
C14A C66U	1.03
C13G G82A	0.0519
C14A G31C	0.0678
C14A C18A	0
C14A U20C	0.111
C13A C30U	0.181
C13A G25U	0.0791
C14G U27C	0.727
C14G U27G	1.14
C14U C44G	0.7
C14U C61G	1.08
C13U U60A	0.554
C14G C22G	0
C14G C22A	0
C14G U20G	0.151
C14A G80C	0.104
C13G C14G	0.166
C13G C19U	0.0396
C13G C19A	0.0437
C14A C24A	0.383
C14A C24G	0.146
C13U G38C	0.0554
C14A G55A	0.814
C14A C26U	1.07

Variant	self-cleavage
C13G G52U	0
C13G G68U	0.0978
C13G G68C	0
C13U A78G	0.178
C13U A43C	0.0791
C13U A43U	0.151
C13G U23G	0
C14U U69C	1.4
C13G C61U	0.148
C13U U47A	0.646
C14A C32G	0.0573
C13G G28C	0.0504
C13G G28A	0
C14U C57G	0.787
C14U C57U	0.878
C13G A42U	0.0811
C14G U23A	0.68
C13A G74A	0.101
C13A G74C	0.0346
C14G U65G	0.665
C14U U37C	1.32
C13G C62U	0.0369
C14G G53U	0.802
C13U G55C	0.658

Variant	self-cleavage
C13U G53C	0.831
C14G C66G	0.391
C13G C49G	0.356
C14U A87C	1.12
C14U A87U	1.08
C13U G17C	0.217
C14A A78U	0.0791
C14A A78G	0.0519
C14U C32U	0.86
C13A G39U	0.0615
C13G C66U	0.0692
C13G C66G	0.135
C13A C15G	0.142
C13G G59C	0.104
C14U G25C	0.199
C14A U46G	0.525
C13G U69A	0.0437
C14A C30U	0.143
C13U G80A	0.31
C14U C48U	1.02
C13A U27G	0.594
C13A U27C	0.594
C13A G53A	0.229
C13A G53U	0.138

Variant	self-cleavage
C13G U72G	0.0923
C13U A70G	0.475
C14U G54U	1.23
C14G C24G	0
C15A A78C	0.0652
C14A G82C	0.172
C14A C36U	0.259
C14U A51C	1.19
C14U G34C	0.172
C13U U23G	0.287
C13U G50C	0.636
C13U C33A	0.0923
C13G C58A	0
C14A G34A	0.185
C14U C22G	0.155
C13A C63G	0.38
C13U C32U	0.584
C13U C32G	0.101
C13U A56C	0.677
C14U C19A	0.0545
C14G C64G	0.485
C14G C32G	0
C14G C32A	0.0554
C13G U79C	0

Variant	self-cleavage
C14A U23C	0.997
C14G U60A	0.831
C13G C63U	0
C13G G17C	0.138
C14G G50C	0.302
C14A G67C	0.554
C13G G25U	0.232
C14G G73C	0.0504
C14G G73A	0.222
C15A	0.698
C13U C62G	0.554
C15A A16G	0.35
C15A A16U	0.499
C14U G38U	0.271
C14G C44U	0.208
C13U A16U	1.11
C14G G25A	0.0437
C13A C84G	0.237
C14U G55C	1.05
C14A G73C	0.104
C13U A45U	0.198
C13G A77U	0.119
C13A G81U	0.22
